Blank lines part the entries; values can stand above or below the molecule they belong to. Ends that are not written are not given here. Me3 = trimethyl (trimethyl-lysine)
How the values were obtained:
SP140 = target: T1, SP140 (Homo sapiens, UniProt Q13342); assay: fluorescence polarization competition against GSK064; assay type: binding
T1 construct: 6HisFLAGTEVSP140 (687-867), PHD-Brd

[1] = target: T2, 6His-Flag-Tev-SP140-PHD-Brd (687-867) (human, UniProt Q13342 687-867); assay: fluorescence polarisation; competition: H3 peptides serially diluted, displacing 10 nM GSK306 (FAM-labelled GSK761) from 80 nM 6His…140 (687-867); 50 mM HEPES pH 7.5, 50 mM NaCl, 1 mM CHAPS, 1 mM DTT; 30 min; details: both partners purified
T2 construct: SP140 (Speckled 140 kDa), construct spanning the PHD and Brd domains, aa 687-867; also called SP140 (aa 687-867); source: recombinant protein; not shown: His6, N-terminal, kept; FLAG, N-terminal, kept
T2 sequence (Q13342 687-867): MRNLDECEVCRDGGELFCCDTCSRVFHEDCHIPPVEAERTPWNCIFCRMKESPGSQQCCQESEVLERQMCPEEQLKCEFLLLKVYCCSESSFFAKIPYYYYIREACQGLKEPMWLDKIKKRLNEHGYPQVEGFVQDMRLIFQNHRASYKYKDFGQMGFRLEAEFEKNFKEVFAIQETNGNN

[2] = target: T2, 6His-Flag-Tev-SP140-PHD-Brd (687-867); assay: peptide or protein array; Active Motif modified histone peptide array, peptides on the slide; blocked with 3% BSA; 10 mg/mL 6His-Flag-Tev-SP140-PHD-Brd (687-867) in solution; detected with anti-6His antibody and anti-rabbit IgG HRP; in duplicate; details: both partners purified

T1 sequence (Q13342 687-867): as above

IC50 [1]: 12500 nM
B1: H3K4(3Me) (1-10) (peptide)
peptide: ARTK(Me3)QTARKS
notes: histone H3, residues 1-10; numbers count on: the protein without the initiator methionine; source: bought: Anaspec library

IC50 [1]: 270 nM
B2: biotinylated H3(+YCK) (1-18 +YCK) (peptide)
peptide: ARTKQTARKSTGGKAPRKYCK
modifications: also: biotin, position not given here
notes: histone H3, residues 1-18; numbers count on: the protein without the initiator methionine; added residues, printed as '+YCK' after 1-18; also called H3_(1-18); source: bought: Anaspec library

Second part, the molecule before the results:

Molecule: Cn1c(-c2ccc(C(=O)Nc3cccc(CCOC(C)(C)C)c3)cc2)nc2cc(C(=O)Nc3cccc(CCOC(C)(C)C)c3)ccc21 [GSK761]
IC50 (SP140): 77.8 ± 8.27 nM

B3: unmodified H3_(1-19) peptide (histone peptide array) (peptide)
peptide: ARTKQTARKSTGGKAPRKQ
notes: histone H3, residues 1-19; numbers count on: the protein without the initiator methionine; Spotted on the array slide; source: bought: Active Motif modified histone peptide array
binding result [2]: binds

B4: biotinylated H3 (1-9) (peptide)
peptide: ARTKQTARK
modifications: also: biotin, position not given here
notes: histone H3, residues 1-9; numbers count on: the protein without the initiator methionine; source: bought: Anaspec library
IC50 [1]: 2830 nM
